Results taken from publication doi:10.1101/2024.06.19.598823 (bioRxiv, 2024).

Biological target: RBD protein of SARS-like CoV WIV16 (Bat SARS-like coronavirus WIV16)
Experiment: ELISA

B1: nanobody 7F (VHH)
VHH: EVQLVESGGGLVEAGGSLRLSCVASGLTFSDYTMAWFRQVPGQEREFVSHIGWGGSETYYADSVKGRFTISRDNAKNAMYLQMNELKPDDTAVYYCAADRGSSFYYVRESEYTFWGQGTQVTVSS
  binding result: binds
